Source: doi:10.1101/2025.08.12.669882

Biological target: TG (triacylglycerol)
Test: TG binding assay with purified proteins, TLC of radiolabeled TG
Conditions: 2.5 mol % TG; parent: est. 1.5; read off a plot

- response (relative to MBOAT7): 1.2
Substance: LDAC (m1 + m2) F57A; S61A; L105A; S109A
